The values that follow come from US20240218070A1 (MERUS N V, published 2024).

T1: cynomolgus FAP (cyFAP) expressed on 293FF cells (cynomolgus, UniProt Q12884 1-760 (human entry))
T1 sequence: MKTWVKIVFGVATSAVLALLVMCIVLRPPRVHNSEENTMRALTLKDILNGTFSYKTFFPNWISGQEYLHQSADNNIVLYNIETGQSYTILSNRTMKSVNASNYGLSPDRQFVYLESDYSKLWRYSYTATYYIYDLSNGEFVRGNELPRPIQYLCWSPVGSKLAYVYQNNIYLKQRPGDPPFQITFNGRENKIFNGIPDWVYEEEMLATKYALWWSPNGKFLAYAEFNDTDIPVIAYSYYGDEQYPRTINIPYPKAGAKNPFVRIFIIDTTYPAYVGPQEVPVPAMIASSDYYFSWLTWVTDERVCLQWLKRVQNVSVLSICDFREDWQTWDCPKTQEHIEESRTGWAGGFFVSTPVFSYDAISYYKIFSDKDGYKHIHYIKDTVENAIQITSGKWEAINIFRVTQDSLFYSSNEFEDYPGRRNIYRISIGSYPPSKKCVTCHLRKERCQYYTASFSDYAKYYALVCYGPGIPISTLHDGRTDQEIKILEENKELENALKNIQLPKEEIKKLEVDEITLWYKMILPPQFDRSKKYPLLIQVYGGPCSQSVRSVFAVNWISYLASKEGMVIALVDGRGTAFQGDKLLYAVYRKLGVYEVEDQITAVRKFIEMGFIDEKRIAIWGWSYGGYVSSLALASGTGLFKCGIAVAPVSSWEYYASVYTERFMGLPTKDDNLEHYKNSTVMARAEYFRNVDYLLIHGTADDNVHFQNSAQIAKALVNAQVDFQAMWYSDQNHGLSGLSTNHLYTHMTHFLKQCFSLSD

B1: anti-human FAP bivalent monospecific IgG comprising heavy chain variable region SEQ ID NO: 19 (antibody, V domains shown)
VH: EVQLVESGGGLVKPGGSLRLSCAASGFPFNYAWMSWVRQAPGKGLEWVGRIKPKTSGGATDYAAPVKDRFTISRDDSRNTLYLQMNSLKTEDTAVYYCSAREDIWNFFFDLWGQGTLVTVSS
VL: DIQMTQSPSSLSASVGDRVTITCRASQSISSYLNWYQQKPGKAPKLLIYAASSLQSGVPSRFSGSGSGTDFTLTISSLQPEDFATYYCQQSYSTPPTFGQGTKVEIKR
notes: IgG1 format, common light chain VK1-39/JK1
B2: anti-human FAP bivalent monospecific IgG comprising heavy chain variable region SEQ ID NO: 69 (antibody, V domains shown)
VH: EVQLVETGGGLIQPGGSLRLSCAASGFTVSSNYMSWVRQAPGKGLEWVSVIYSGGSTYYADSVKGRFTISRDNSKNTLYLQMNSLRAEDTAVYYCARGPTDAYPYLDYLWGQGTLVTVSS
VL: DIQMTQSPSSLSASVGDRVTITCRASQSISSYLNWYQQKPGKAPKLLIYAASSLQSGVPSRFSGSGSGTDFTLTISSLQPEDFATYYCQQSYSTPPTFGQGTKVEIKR
notes: IgG1 format, common light chain VK1-39/JK1; also called human/mouse cross-reactive FAP IgG
B3: anti-human FAP bivalent monospecific IgG comprising heavy chain variable region SEQ ID NO: 11 (antibody, V domains shown)
VH: EVQLVESGGGLVQPGGSLRLSCAASGFTFSSYAMIWVRQAPGKGLEWVSAISGSGGYTFNADSVKGRFTMSRDNSKNTLYLQMNSLRAEDTAVYYCAKRDGGYEGGAFDIWGQGTLVTVSS
VL: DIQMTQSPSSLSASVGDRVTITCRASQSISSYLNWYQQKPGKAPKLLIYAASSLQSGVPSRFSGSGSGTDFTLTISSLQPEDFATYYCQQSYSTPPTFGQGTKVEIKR
notes: as for B1
B4: anti-human FAP bivalent monospecific IgG comprising heavy chain variable region SEQ ID NO: 15 (antibody, V domains shown)
VH: QLQLQESGPGLVKPSETLSLTCTVSGGSISSSSYFWAWIRQPPGKGLEFIGNIYYSGSTYYNPSLKSRVTISVDTSKNQFSLKLSSVTAADTAVYYCARPSYYGSGNYYFAFWGQGTLVTVSS
VL: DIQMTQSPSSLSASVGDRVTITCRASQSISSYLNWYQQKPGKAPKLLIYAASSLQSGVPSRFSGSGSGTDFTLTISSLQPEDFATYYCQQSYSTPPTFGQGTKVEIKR
notes: as for B1

The test addresses T1, cynomolgus FAP (cyFAP) expressed on …. The test is described as follows: FACS, 293FF cells stably expressing cyFAP, IgG at 2.5 ug/ml. The protocol: The binding of all test and control antibodies to the cells was tested at a single concentration of 2.5 ug/ml. Goat-anti-human IgG F(ab)2-PE (Invitrogen, H10104) was used as secondary antibody (1:100 in FACS buffer). Ab0625 was used at 10 ug/ml and its binding was detected using Ab0250 (Becton Dickinson, 550767) (1:100 in FACS buffer). The FACS buffer containing PBS (Gibco, cat. #10010-015), 0.5% BSA (Thermo Scientific, cat. #37525), and 2 mM EDTA (Invitrogen, cat. #15575-020) was kept ice cold throughout the assay.
The target cells were harvested, counted, and centrifuged for 5 min at 300 g at 4 °C. Cells were then resuspended in FACS buffer at a concentration of 1×10⁶ cells/ml and transferred (200,000 cells/well) to a U-bottom 96-well FACS plate (BD, cat. #353910). Cells were then centrifuged for 3 min at 300 g at 4° C. and supernatant was discarded. 50 μl of primary antibody solutions were added to the cells, mixed, and incubated for 30 min at 2-8° C. in the dark. Cells were washed by adding 150 μl FACS buffer and centrifuged for 3 min at 300 g at 4° C. Supernatant was discarded, and cells were washed again by adding 200 μl FACS buffer to the plate. Cells were then centrifuged for 3 min at 300 g at 4° C. and afterwards the supernatant was discarded. 50 μl of secondary antibody solutions were added to the cells, mixed, and incubated for 30 min at 2-8° C. in the dark. Cells were then washed by adding 150 μl FACS buffer to the plate and centrifuged for 3 min at 300 g at 4° ° C. Supernatant was discarded and cells were washed again by adding 200 μl FACS buffer to the plate and centrifuged for 3 min at 300 g at 4° C. Supernatant was discarded and cells were fixated by adding 100 μl/well ice-cold Fixation buffer (2% formaldehyde solution in PBS, Sigma-Aldrich, cat. #47608-250ML-F). Cells were incubated for 15 min on ice in the dark. Afterwards, 100 μl ice-cold PBS was added to the cells and cells were centrifuged for 3 at 300 g at 4° C. Supernatant was discarded and cells were resuspended in 120 μl FACS buffer.
(In general: A flow cytometer gives signals particle by particle.)
With B1, the binding result is “binds”.
For B2, the binding result was “binds”.
B3: the binding result was “binds”.
As to B4, the binding result was “binds”.
